In the RNAGym collection of RNA variant scans (doi:10.1101/gr.219683.116):

B1: mRNA-splicing (parent)
chain: AGUUGCUGCUGGGAGCUCCAGCACAGUGAAAUGGACAGAAGGGCAGAGCAA

Variants of: B1
Assay: exon inclusion enrichment index; higher = more inclusion; WT1 exon 5 minigene, HEK293

Variant	exon inclusion enrichment index
AGUUAGGGAUGGGAGCUCCAGCACAGUGAAAUGGACGUAAGGGCAGAGCAA	0.000981
AGUUAGGGAUGGGAGCUCCAGCACAGUGAAAUGGACGCAAGGGCAGAGCAA	0.00203
AGUUAGGGAUGGGAGCUCCAGCACAGUGAAAUGGACGAAAGGGCAGAGCAA	0.0012
AGUUAGGGAUGGGAGCUCCGUCACAGUGAAAUGGACAGAAGGGCAGAGCAA	0.00168
AGUUAGGGAUGGGAGCUCCGCCACAGUGAAAUGGACAGAAGGGCAGAGCAA	0.00328
AGUUAGGGAUGGGAGCUCCAGCUGAGUGAAAUGGACAGAAGGGCAGAGCAA	0.000949
AGUUAGGGAUGGGAGCUCCAGCUUAGUGAAAUGGACAGAAGGGCAGAGCAA	0.000744
AGUUAGGGAUGGGAGCUCCAGCUAAGUGAAAUGGACAGAAGGGCAGAGCAA	0.000776
AGUUAGGGAUGGGAGCUCCUGCACAGUGAAAUGGACAGAAGGGCAGAGCAA	0.00146
AGUUAGGGAUGGGAGCUCCAGCACAGUGAAAUGGACGGAAGGGCAGAGCAA	0.00135
AGUUAGGGAUGGGAGCUCCAGCACAGUGAAAUGGACUGAAGGGCAGAGCAA	0.00604
AGUUAGGGAUGGGAGCUCCAGCACAGUGAAAUGGACCGAAGGGCAGAGCAA	0.00434
AGUUAGGGAUGGGAGCUCCAGCGCAGUGAAAUGGACAGAAGGGCAGAGCAA	0.00235
AGUUAGGGAUGGGAGCUCCAGCUCAGUGAAAUGGACAGAAGGGCAGAGCAA	0.0012
AGUUAGGGAUGGGAGCUCCAGCCCAGUGAAAUGGACAGAAGGGCAGAGCAA	0.00491
AGUUAGGGAUGGGAGCUCCAGCACAGUGAAAUGGACAGUCGGGCAGAGCAA	0.0022
AGUUAGGGAUGGGAGCUCCAGCACAGUGAAAUGGACAGUGGGGCAGAGCAA	0.00317
AGUUAGGGAUGGGAGCUCCAGCACAGUGAAAUGGACAGUUGGGCAGAGCAA	0.00155
AGUUAGGGAUGGGAGCUCCAGCACAGUGUCAUGGACAGAAGGGCAGAGCAA	0.000854
AGUUAGGGAUGGGAGCUCCAGCACAGUGUUAUGGACAGAAGGGCAGAGCAA	0.000968
AGUUAGGGAUGGGAGCUCCAGCACAGUGUGAUGGACAGAAGGGCAGAGCAA	0.00279
AGUUAGGGAUGGGAGCUCCAGCACAGUGAAAUGGACAGUAGGGCAGAGCAA	0.000789
AGUUAGGGAUGGGAGCUCCAGCACAGUGAAAUGGACAGGAGGGCAGAGCAA	0.00219
AGUUAGGGAUGGGAGCUCCAGCACAGUGAAAUGGACAGCAGGGCAGAGCAA	0.00101
AGUUAGGGAUGGGAGCUCCAGCACGUUGAAAUGGACAGAAGGGCAGAGCAA	0.0111
AGUUAGGGAUGGGAGCUCCAGCACGCUGAAAUGGACAGAAGGGCAGAGCAA	0.0234

Variant	exon inclusion enrichment index
AGUUAGGGAUGGGAGCUCCAGCACGAUGAAAUGGACAGAAGGGCAGAGCAA	0.0192
AGUUAGGGAUGGGAGCUCCAGCACAGUGAAAUGGACCCAAGGGCAGAGCAA	0.00112
AGUUAGGGAUGGGAGCUCCAGCACAGUGAAAUGGACCUAAGGGCAGAGCAA	0.000751
AGUUAGGGAUGGGAGCUCCAGCACAGUGAAAUGGACCAAAGGGCAGAGCAA	0.00086
AGUUAGGGAUGGGAGCUCCAGCACAGUGAAAUGGCGAGAAGGGCAGAGCAA	0.00118
AGUUAGGGAUGGGAGCUCCAGCACAGUGAAAUGGCUAGAAGGGCAGAGCAA	0.000826
AGUUAGGGAUGGGAGCUCCAGCACAGUGAAAUGGCAAGAAGGGCAGAGCAA	0.000972
AGUUAGGGAUGGGAGCUCCAGCCAAGUGAAAUGGACAGAAGGGCAGAGCAA	0.00335
AGUUAGGGAUGGGAGCUCCAGCCUAGUGAAAUGGACAGAAGGGCAGAGCAA	0.00192
AGUUAGGGAUGGGAGCUCCAGCCGAGUGAAAUGGACAGAAGGGCAGAGCAA	0.0142
AGUUAGGGAUGGGAGCUCCAGCACAGUGCCAUGGACAGAAGGGCAGAGCAA	0.00169
AGUUAGGGAUGGGAGCUCCAGCACAGUGCUAUGGACAGAAGGGCAGAGCAA	0.00149
AGUUAGGGAUGGGAGCUCCAGCACAGUGCGAUGGACAGAAGGGCAGAGCAA	0.0167
AGUUAGGGAUGGGAGCUCCAGCACAGUGAAAUGGGGAGAAGGGCAGAGCAA	0.00533
AGUUAGGGAUGGGAGCUCCAGCACAGUGAAAUGGGAAGAAGGGCAGAGCAA	0.00181
AGUUAGGGAUGGGAGCUCCAGCACAGUGAAAUGGGUAGAAGGGCAGAGCAA	0.00169
AGUUAGGGAUGGGAGCUCCAGCACAGUGAAAUGGACAGGUGGGCAGAGCAA	0.00199
AGUUAGGGAUGGGAGCUCCAGCACAGUGAAAUGGACAGGCGGGCAGAGCAA	0.00397
AGUUAGGGAUGGGAGCUCCAGCACAGUGAAAUGGACAGGGGGGCAGAGCAA	0.0132
AGUUAGGGAUGGGAGCUCCAGCACAGUGAGGUGGACAGAAGGGCAGAGCAA	0.00115
AGUUAGGGAUGGGAGCUCCAGCACAGUGAGUUGGACAGAAGGGCAGAGCAA	0.000963
AGUUAGGGAUGGGAGCUCCAGCACAGUGAGCUGGACAGAAGGGCAGAGCAA	0.00143
AGUUAGGGAUGGGAGCUCCAGCGAAGUGAAAUGGACAGAAGGGCAGAGCAA	0.00158
AGUUAGGGAUGGGAGCUCCAGCGUAGUGAAAUGGACAGAAGGGCAGAGCAA	0.000891
AGUUAGGGAUGGGAGCUCCAGCGGAGUGAAAUGGACAGAAGGGCAGAGCAA	0.0109
AGUUAGGGAUGGGAGCUCCAGCACAGUGAAAUGGUCAGAAGGGCAGAGCAA	0.000728

Variant	exon inclusion enrichment index
AGUUAGGGAUGGGAGCUCCAGCACAGUGAAAUGGCCAGAAGGGCAGAGCAA	0.00244
AGUUAGGGAUGGGAGCUCCAGCACAGUGAAAUGGGCAGAAGGGCAGAGCAA	0.00109
AGUUAGGGAUGGGAGCUCCAGCACAGUGAAGUGGACAGAAGGGCAGAGCAA	0.00766
AGUUAGGGAUGGGAGCUCCAGCACAGUGAACUGGACAGAAGGGCAGAGCAA	0.00349
AGUUAGGGAUGGGAGCUCCAGCACAGUGAAUUGGACAGAAGGGCAGAGCAA	0.00278
AGUUAGGGAUGGGAGCUCCAGCACAGUGGGAUGGACAGAAGGGCAGAGCAA	0.00214
AGUUAGGGAUGGGAGCUCCAGCACAGUGGUAUGGACAGAAGGGCAGAGCAA	0.000871
AGUUAGGGAUGGGAGCUCCAGCACAGUGGCAUGGACAGAAGGGCAGAGCAA	0.000858
AGUUAGGGAUGGGAGCUCCAGCACAGUGAUCUGGACAGAAGGGCAGAGCAA	0.00225
AGUUAGGGAUGGGAGCUCCAGCACAGUGAUGUGGACAGAAGGGCAGAGCAA	0.000854
AGUUAGGGAUGGGAGCUCCAGCACAGUGAUUUGGACAGAAGGGCAGAGCAA	0.00264
AGUUAGGGAUGGGAGCUCCAGCACAGUGACCUGGACAGAAGGGCAGAGCAA	0.00182
AGUUAGGGAUGGGAGCUCCAGCACAGUGACGUGGACAGAAGGGCAGAGCAA	0.00621
AGUUAGGGAUGGGAGCUCCAGCACAGUGACUUGGACAGAAGGGCAGAGCAA	0.00118
AGUUAGGGAUGGGAGCUCCAGCACAGUGAAAUGGACUCAAGGGCAGAGCAA	0.00236
AGUUAGGGAUGGGAGCUCCAGCACAGUGAAAUGGACUAAAGGGCAGAGCAA	0.00155
AGUUAGGGAUGGGAGCUCCAGCACAGUGAAAUGGACUUAAGGGCAGAGCAA	0.00105
AGUUAGGGAUGGGAGCUCCAGCACAGUGAAAUGGACAGCCGGGCAGAGCAA	0.0091
AGUUAGGGAUGGGAGCUCCAGCACAGUGAAAUGGACAGCUGGGCAGAGCAA	0.00672
AGUUAGGGAUGGGAGCUCCAGCACAGUGAAAUGGACAGCGGGGCAGAGCAA	0.0112
AGUUAGGGAUGGGAGCUCCAGCACAGUGAAAUGGUGAGAAGGGCAGAGCAA	0.00119
AGUUAGGGAUGGGAGCUCCAGCACAGUGAAAUGGUAAGAAGGGCAGAGCAA	0.001
AGUUAGGGAUGGGAGCUCCAGCACAGUGAAAUGGUUAGAAGGGCAGAGCAA	0.000752
AGUUAGGGAUGGGAGCUCCAGCACCGUGAAAUGGACAGAAGGGCAGAGCAA	0.0135
AGUUAGGGAUGGGAGCUCCAGCACGGUGAAAUGGACAGAAGGGCAGAGCAA	0.0133
AGUUAGGGAUGGGAGCUCCAGCACUGUGAAAUGGACAGAAGGGCAGAGCAA	0.00086

Variant	exon inclusion enrichment index
AGUUAGGGAUGGGAGCUCCAGCACAGUGCAAUGGACAGAAGGGCAGAGCAA	0.00344
AGUUAGGGAUGGGAGCUCCAGCACAGUGGAAUGGACAGAAGGGCAGAGCAA	0.00111
AGUUAGGGAUGGGAGCUCCAGCACAGUGUAAUGGACAGAAGGGCAGAGCAA	0.000861
AGUUAGGGAUGGGAGCUCCAGCACAGUGAAUAGGACAGAAGGGCAGAGCAA	0.000867
AGUUAGGGAUGGGAGCUCCAGCACAGUGAAUCGGACAGAAGGGCAGAGCAA	0.00119
AGUUAGGGAUGGGAGCUCCAGCACAGUGAAUGGGACAGAAGGGCAGAGCAA	0.0027
AGUUAGGGAUGGGAGCUCCAGCACAGUGAACCGGACAGAAGGGCAGAGCAA	0.00479
AGUUAGGGAUGGGAGCUCCAGCACAGUGAACAGGACAGAAGGGCAGAGCAA	0.00457
AGUUAGGGAUGGGAGCUCCAGCACAGUGAACGGGACAGAAGGGCAGAGCAA	0.00133
AGUUAGGGAUGGGAGCUCCAGCACUUUGAAAUGGACAGAAGGGCAGAGCAA	0.000854
AGUUAGGGAUGGGAGCUCCAGCACUAUGAAAUGGACAGAAGGGCAGAGCAA	0.00161
AGUUAGGGAUGGGAGCUCCAGCACUCUGAAAUGGACAGAAGGGCAGAGCAA	0.00304
AGUUAGGGAUGGGAGCUCCUUCACAGUGAAAUGGACAGAAGGGCAGAGCAA	0.000871
AGUUAGGGAUGGGAGCUCCUCCACAGUGAAAUGGACAGAAGGGCAGAGCAA	0.00185
AGUUAGGGAUGGGAGCUCCUACACAGUGAAAUGGACAGAAGGGCAGAGCAA	0.000815
AGUUAGGGAUGGGAGCUCCAGCACAGUGAGAUGGACAGAAGGGCAGAGCAA	0.00525
AGUUAGGGAUGGGAGCUCCAGCACAGUGAUAUGGACAGAAGGGCAGAGCAA	0.00076
AGUUAGGGAUGGGAGCUCCAGCACAGUGACAUGGACAGAAGGGCAGAGCAA	0.00196
AGUUAGGGAUGGGAGCUCCAGCACCUUGAAAUGGACAGAAGGGCAGAGCAA	0.00184
AGUUAGGGAUGGGAGCUCCAGCACCAUGAAAUGGACAGAAGGGCAGAGCAA	0.00349
AGUUAGGGAUGGGAGCUCCAGCACCCUGAAAUGGACAGAAGGGCAGAGCAA	0.00427
AGUUAGGGAUGGGAGCUCCAGCACAGUGAAGAGGACAGAAGGGCAGAGCAA	0.0281
AGUUAGGGAUGGGAGCUCCAGCACAGUGAAGGGGACAGAAGGGCAGAGCAA	0.0039
AGUUAGGGAUGGGAGCUCCAGCACAGUGAAGCGGACAGAAGGGCAGAGCAA	0.00508
